Values belong to the binder of their own block, whether it stands above or below them.
Columns and labels:
Test in all cases: cell-based or functional assay
[1] = biological target: DII4-His (C-terminal His-tagged human DII4, amino acid 27-524) (human) (UniProt Q9NR61)
[2] = biological target: VEGF (used to stimulate HUVEC cells) (UniProt P15692)
VEGF = VEGF (UniProt P15692)
VEGF, sequence (P15692 other isoform, or with tags, fused parts or gaps limits assumed): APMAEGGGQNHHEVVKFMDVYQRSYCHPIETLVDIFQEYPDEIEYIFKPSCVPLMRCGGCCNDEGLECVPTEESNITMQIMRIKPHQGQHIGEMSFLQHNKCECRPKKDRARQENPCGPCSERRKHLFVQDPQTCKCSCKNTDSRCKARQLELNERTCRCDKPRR

DII4-His (C-terminal His-tagged human DII4, amino acid 27-524) (human), sequence (Q9NR61 25-522): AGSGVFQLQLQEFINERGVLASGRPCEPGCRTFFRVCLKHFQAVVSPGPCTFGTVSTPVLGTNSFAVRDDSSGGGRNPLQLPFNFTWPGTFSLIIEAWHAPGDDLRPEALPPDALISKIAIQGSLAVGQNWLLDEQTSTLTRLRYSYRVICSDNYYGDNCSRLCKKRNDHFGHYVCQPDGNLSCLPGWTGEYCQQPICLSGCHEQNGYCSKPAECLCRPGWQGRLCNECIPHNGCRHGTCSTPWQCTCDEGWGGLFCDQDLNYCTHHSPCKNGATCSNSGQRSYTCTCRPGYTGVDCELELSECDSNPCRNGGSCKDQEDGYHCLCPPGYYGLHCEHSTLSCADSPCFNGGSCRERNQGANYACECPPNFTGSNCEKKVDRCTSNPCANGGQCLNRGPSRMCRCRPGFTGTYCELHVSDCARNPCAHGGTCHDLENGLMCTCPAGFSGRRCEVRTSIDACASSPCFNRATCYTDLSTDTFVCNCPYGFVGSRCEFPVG
VEGF (used to stimulate HUVEC cells), sequence (P15692 other isoform, or with tags, fused parts or gaps limits assumed): as the sequence (P15692 other isoform, or with tags, fused parts or gaps limits assumed) above

IC50 (nM), DII4-mediated HUVEC proliferation assay, +HSA [1]: 3.52 nM | IC50 (nM), DII4-mediated HUVEC proliferation assay, -HSA [1]: 2.32 nM
B1: DLLBII129B05 (VHH, not shown: small tags and cut ends)
VHH: EVQLVESGGGLVQAGGSLRLSCAASGRTFSSYAMAWYRQAPGKEREYVAAIRWSGGTAYYADSVQGRFTISRDNAKNTVYLQMNSLKPEDTAVYYCANRAPDTRLAPYEYDHWGQGTQVTVSS

% inhibition, VEGF HUVEC proliferation assay [2]: 73% | IC50, VEGF HUVEC proliferation assay [2]: 4.29 nM
B2: VEGFBII23A06 (VHH, not shown: small tags and cut ends)
VHH: EVQLVESGGGLVQPGDSLKLSCAFSGRTFSSYSMGWFRQAQGKEREFVVAISSGGFIYDAVSLEGRFTISRDNTKNTVYLQTPSLKPEDTAVYYCAASRAYGSSRLRLADTYDYWGQGTQVTVSS

% inhibition, VEGF HUVEC Erk phosphorylation assay, +HSA (VEGF): 93% | % inhibition, VEGF HUVEC Erk phosphorylation assay, -HSA (VEGF): 91% | IC50 (nM), VEGF HUVEC Erk phosphorylation assay, +HSA (VEGF): 0.6 nM | IC50 (nM), VEGF HUVEC Erk phosphorylation assay, -HSA (VEGF): 0.69 nM
B3: VEGFBII23B04 (VHH, not shown: small tags and cut ends)
VHH: EVQLVESGGGLVQTGDSLRLSCEVSGRTFSSYSMGWFRQAQGKEREFVVAISKGGYKYDSVSLEGRFTISKDNAKNTVYLQINSLKPEDTAVYYCASSRAYGSSRLRLADTYEYWGQGTQVTVSS
